Reference: paper PMC7352223 (2020)
No end group written: not given here.

T1: S100A1 (Homo sapiens, UniProt P23297)
T1 chain: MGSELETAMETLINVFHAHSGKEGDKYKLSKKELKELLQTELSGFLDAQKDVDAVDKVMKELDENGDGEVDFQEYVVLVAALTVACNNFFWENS


What was measured:
Calmodulin = Calmodulin (Homo sapiens, UniProt P0DP23); experiment: fluorescence anisotropy
S100A1 = target: T1, S100A1; experiment: fluorescence anisotropy

Row | Kd (Calmodulin) [µM] | Kd (S100A1) [µM] | Binder
1 | 1.3 | 2.7 | FGECYRSSEVRAARLLLRRCPL (cysteine pairing not given here; also: Ca2+) [TRPM4 (M4nt_WT)]
2 | 2.6 | 12 | PFIVISHLRLLLRQLCRRPRS (also: Ca2+) [TRPM4 (M4ct_WT)]
